Percent of cells positive data for one substance are collected here from article PMC12752125.

The assay concerns the target porcine PD-1 (programmed death 1) expressed on HEK293T cells (porcine). The assay is described as follows: flow cytometry on cells; HEK293T cells transfected with pcDNA3.1-PD-1 (or empty vector) for 24 h; purified PD-L1-Fc added and incubated for 1 h; percent of positive cells read. (In flow cytometry, cells or beads pass a laser one at a time.)

The substance porcine PD-L1-rabbit Fc fusion protein showed a percent of cells positive of 38.3%.
